Data from the nanobody polyreactivity screen of Harvey et al. (2022).

Experiment: yeast display, Sf9 membrane polyspecificity reagent, FACS + sequencing; frameworks hold sequencing errors
Method in brief: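 Sorting gates, low and high (top ~1%), were placed on anti-HA fluorescence to track expression and on streptavidin fluorescence to track reagent binding. A clone's polyreactivity label is taken from the gate it came out of. The reagent was 10% biotinylated, detergent-solubilized Sf9 membrane, applied for 1 hour at 4 °C to galactose-induced yeast display cells.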

Sequence | polyreactivity (PSR sort gate)
QVQLVESGGGLVQAGGSLRLSCAASGSIFYPYAMGWYRQAPGKERELVATISWSGSSTYYADSVKGRVTISRDNAKNTVYSQMNSLKPEDTAVYYCAVRYSVLSNYRYYYWGQGTQVTVSS | low polyreactivity
QVQLVESGGGLVQAGGSLRLSCAASGSIFYPYDMGWYRQAPGKERELVATINWSSGRTNYADSVKGRFTISRDNAKNTVYLQMNSLKPEDTAVYYCNAVTYSRRYAYYYWGQATQVTVSS | high polyreactivity
QVQLVESGGGLVQAGGSLRLSCAASGSIFYPYGMGWYRQAPGKEREFVAAISWSGGTTYYADSVKGRFTISRDNAKNTVYLQMNSLKKEDTGVYYCAAVSFYGVGGTWYNYWGKGTQVTVSS | high polyreactivity
QVQLVESGGGLVQAGGSLRLSCAASGSIFYPYVMGRYRQAPGKEREFVAAITTSGGTTYYADSVKGRFTISLDNAKNTVYLKMNSLKPEDTAVYDCAARGTVPGWAIYDYWGQGTEVTVSS | low polyreactivity
QVQLVESGGGLVQAGGSLRLSCAASGSIFYPYVMGWYRQAPGKERELVAAITTSVGSTYYADSVKGRFTISRDNAKNTVYLQMNSLKPEDTAVYYCAAKYFGSRRPGRYNYWGQGTQVTVSS | high polyreactivity
QVQLVESGGGLVQAGGSLRLSCAASGSIFYQNAMGWYRQAPGKERELVAAITSDGSTYYADSVKGRFTISRDNAKNTVYLQMNSLKPEDTAVYYCAAEYYGHRYDYWGQGTQVTVSS | low polyreactivity
QVQLVESGGGLVQAGGSLRLSCAASGSIFYRNAMGWYRQAPGKERELDAAIDSGDSTNYADSVKGRFTISRDNAKNTVYLQMNSLKPEDTAVYYCAARVIYYYGSGPYDYWGQGTQVTVSS | low polyreactivity
QVQLVESGGGLVQAGGSLRLSCAASGSIFYRNAMGWYRQAPGKERELVAAISGRGGSTNYADSVKGRFTISRDNAKNTVYLQMNSLKPEDTAVYYCNRYGVSNILVRGGYWGQGTQVTVSS | high polyreactivity
QVQLVESGGGLVQAGGSLRLSCAASGSIFYRNAMGWYRQAPGKERELVAAISWSGASTYYADSVKGRFTISRDNAKNTVFLQLNSLKPEDTAVYYCATDDFWNVKFYAYYPEFDYWGQGTQVTVSS | low polyreactivity
QVQLVESGGGLVQAGGSLRLSCAASGSIFYRNAMGWYRQAPGKERELVAGITTRGGSTYYADSVKGRFTISRDNAKNTVYLQMNSLKPEDTAVYYCNKYYYYRDSGYWGQGTQVTVSS | high polyreactivity
QVQLVESGGGLVQAGGSLRLSCAASGSIFYRNAMGWYRQAPGKERELVASISASGGRTYYADSVKGRLTISRDNAKNTVYFQMYSLNREETAFYYCNKVSPVAYWYSWGINFDFWGQGTQVTVSS | high polyreactivity
QVQLVESGGGLVQAGGSLRLSCAASGSIFYRNAMGWYRQAPGKERELVASISSSAGRTYYADSVKGRFTISRDNAKNTVYLQMNSLKPEDTAVYYCAVTSYRQRGAFDYWGQGTQVTVSS | high polyreactivity
QVQLVESGGGLVQAGGSLRLSCAASGSIFYRNAMGWYRQAPGKERELVASITSGGRTNYADSVKGRFTISRDNAKNTVYLQMNSLKPEDTAVYYCARGRASYTKSGPTPYTGYGYWGQGTQVTVSS | low polyreactivity
QVQLVESGGGLVQAGGSLRLSCAASGSIFYRNVMGWYRQAPGKERELVAAISWSGGSTYYADSVKGRFTISRDNAKNTVYLQMNSLKPEDTAVYYCAADIPKTGYPYAFEYWGQGTQVTVSS | low polyreactivity
QVQLVESGGGLVQAGGSLRLSCAASGSIFYRNVMGWYRQAPGKERELVAAITGSGGITYYADSVKGRFTISRDNAKNTVYLQMNSLKPEDTAVYYCNKTSFLVKLDYWGQGTQVTVSS | low polyreactivity
QVQLVESGGGLVQAGGSLRLSCAASGSIFYRYAMGWYRQAPGKERELVAAIRSRTGRTYYADSVKGRFTITRDNAKNTVYLQMNSLKQEDTAVYYCAADKYFSARFDYWGQGTQVTVSS | high polyreactivity
QVQLVESGGGLVQAGGSLRLSCAASGSIFYRYAMGWYRQAPGKERELVAAISSNGVSTYYADSVKGRFTISRDNAKNTVYLQMNSLKPEDTAVYCCARDVYASPRLYTSRYNYWGQGTQVTVSS | low polyreactivity
